Each block holds one binder with its values, some of them ahead of it.
Experiments:
[1] = target: T1, Recombinant Human TNF-α/TNFSF1A (human, UniProt P01375 77-233); assay: cell-based or functional assay
[2] = target: T1, Recombinant Human TNF-α/TNFSF1A; assay: Biacore SPR
Procedure: (§1) The BIACORE assay (Biacore, Inc, Piscataway, N.J.) determines the affinity of antibodies or DVD-Ig with kinetic measurements of on-rate and off-rate constants. Binding of antibodies or DVD-Ig to a target antigen (for example, a purified recombinant target antigen) is determined by surface plasmon resonance-based measurements with a Biacore® 1000 or 3000 instrument (Biacore® AB, Uppsala, Sweden) using running HBS-EP (10 mM HEPES [pH 7.4], 150 mM NaCl, 3 mM EDTA, and 0.005% surfactant P20) at 25° C. All chemicals are obtained from Biacore® AB (Uppsala, Sweden) or otherwise from a different source as described in the text. For example, approximately 5000 RU of goat anti-mouse IgG, (Fcγ), fragment specific polyclonal antibody (Pierce Biotechnology Inc, Rockford, Ill.) diluted in 10 mM sodium acetate (pH 4.5) is directly immobilized across a CMS research grade biosensor chip using a standard amine coupling kit according to manufacturer's instructions and procedures at 25 μg/ml. Unreacted moieties on the biosensor surface are blocked with ethanolamine. Modified carboxymethyl dextran surface in flowcell 2 and 4 is used as a reaction surface. Unmodified carboxymethyl dextran without goat anti-mouse IgG in flow cell 1 and 3 is used as the reference surface. For kinetic analysis, rate equations derived from the 1:1 Langmuir binding model are fitted simultaneously to association and dissociation phases of all eight injections (using global fit analysis) with the use of Biaevaluation 4.0.1 software. Purified antibodies or DVD-Ig are diluted in HEPES-buffered saline for capture across goat anti-mouse IgG specific reaction surfaces. Antibodies or DVD-Ig to be captured as a ligand (25 μg/ml) are injected over reaction matrices at a flow rate of 5 μl/min. The association and dissociation rate constants, kₒₙ (M⁻¹s⁻) and koff(s⁻¹) are determined under a continuous flow rate of 25 μl/min. Rate constants are derived by making kinetic binding measurements at different antigen concentrations ranging from 10-200 nM. The equilibrium dissociation constant (M) of the reaction between antibodies or DVD-Igs and the target antigen is then calculated from the kinetic rate constants by the following formula: KD=koff/kₒₙ. Binding is recorded as a function of time and kinetic rate constants are calculated.

Recombinant Human SOST = target: T2, Recombinant Human SOST (human, UniProt Q9BQB4 24-213); assay: Biacore SPR
T2 construct: Biacore reagent from R&D Systems; the Wnt-1/luciferase assay used Human Sclerostin (Abbott PR-1261069); also called Sclerostin; Human Sclerostin
T2 sequence (looked up): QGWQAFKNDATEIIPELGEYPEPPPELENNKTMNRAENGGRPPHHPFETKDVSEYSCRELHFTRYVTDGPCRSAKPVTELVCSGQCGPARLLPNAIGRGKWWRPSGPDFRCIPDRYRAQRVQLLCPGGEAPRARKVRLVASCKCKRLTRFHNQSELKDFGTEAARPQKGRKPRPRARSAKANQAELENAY
Procedure: as §1

T1 sequence (P01375 77-233 limits assumed): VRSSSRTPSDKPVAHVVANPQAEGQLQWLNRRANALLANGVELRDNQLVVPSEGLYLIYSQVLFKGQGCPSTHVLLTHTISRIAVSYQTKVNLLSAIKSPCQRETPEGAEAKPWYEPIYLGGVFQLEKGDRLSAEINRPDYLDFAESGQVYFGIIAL

B1: DVD1522 (bispecific antibody, human IgG1, kappa)
heavy: not shown
light: DVVMTQTPLSLPVSLGDQASISCTSGQSLVHINGNTYLHWYLQKPGQSPKLLIYKVSNLFSGVPDRFSGSGSGTDFTLKISRVEAEDLGVYFCSQSTHFPFTFGTGTKLEIKRTVAAPDIQMTQSPSSLSASVGDRVTITCRASQGIRIDLGWYQQKPGKAPKRLIYAASTLQSGVPSRFSGSGSGTEFIFTISSLQPEDFASYYCLQHKSYPLTFGGGTKVEIKRTVAAPSVFIFPPSDEQLKSGTASVVCLLNNFYPREAKVQWKVDNALQSGNSQESVTEQDSKDSTYSLSSTLTLSKADYEKHKVYACEVTHQGLSSPVTKSFNRGEC
- TNFα Neutralization Assay EC50 (L929 cells) [1]: 4.18 nM

B2: AB213 (antibody, V domains shown)
VH: QVQLKESGPGLVAPSQSLSITCTVSGFSLTDYGVNWVRQPPGKGLEWLGMIWGDGSTDYDSTLKSRLSISKDNSKSQIFLKMNSLQTDDTARYYCAREWHHGPVAYWGQGTLVTVSA
VL: DIVMTQSHKFMSTTVGDRVSITCKASQAVSSAVAWYQQKPGQSPKLLIYWASTRHTGVPDRFTGSGSVTDFTLTIHNLQAEDLALYYCQQHYSTPFTFGSGTKLEIKR
notes: Parent antibody
- Kd [2]: 0.0335 nM
- koff [2]: 0.000108 s⁻¹
- kon [2]: 3.23e+06 M⁻¹ s⁻¹
- TNFα Neutralization Assay EC50 (L929 cells) [1]: 0.124 nM

B4: DVD1496 (bispecific antibody, human IgG1, kappa)
heavy: not shown
light: DVQMIQSPSSLSASLGDIVTMTCQASQGTSINLNWFQQKPGKAPKLLIYGSSNLEDGVPSRFSGSRYGTDFTLTISSLEDEDLATYFCLQHSYLPYTFGGGTKLEIKRTVAAPDIVMTQSHKFMSTTVGDRVSITCKASQAVSSAVAWYQQKPGQSPKLLIYWASTRHTGVPDRFTGSGSVTDFTLTIHNLQAEDLALYYCQQHYSTPFTFGSGTKLEIKRTVAAPSVFIFPPSDEQLKSGTASVVCLLNNFYPREAKVQWKVDNALQSGNSQESVTEQDSKDSTYSLSSTLTLSKADYEKHKVYACEVTHQGLSSPVTKSFNRGEC
- TNFα Neutralization Assay EC50 (L929 cells) [1]: 0.085 nM

B5: DVD1516 (bispecific antibody, human IgG1, kappa)
heavy: not shown
light: DVLMTQTPLSLPVTPGEPASISCTSSQNIVHSNGNTYLEWYLQKPGQSPQLLIYKVSNRFSGVPDRFSGSGSGTDFTLKISRVEAEDVGVYYCFQVSHVPYTFGGGTKVEIKRTVAAPDIQMTQSPSSLSASVGDRVTITCRASQGIRIDLGWYQQKPGKAPKRLIYAASTLQSGVPSRFSGSGSGTEFIFTISSLQPEDFASYYCLQHKSYPLTFGGGTKVEIKRTVAAPSVFIFPPSDEQLKSGTASVVCLLNNFYPREAKVQWKVDNALQSGNSQESVTEQDSKDSTYSLSSTLTLSKADYEKHKVYACEVTHQGLSSPVTKSFNRGEC
- TNFα Neutralization Assay EC50 (L929 cells) [1]: 8.71 nM

B6: AB218 (antibody, V domains shown)
VH: EVQLVESGGGLIQPGGSLRLSCAASGFTVSRNYMSWVRQAPGKGLEWVSVIYSGDRTYYADSVKGRFTISRDNSKNTLYLQMNSLRAEDTAVYYCARGEGGFDYWGQGTLVTVSS
VL: EIVMTQSPATLSVSPGERATLSCRASQSVSSNLAWYQQKPGQAPRLLIHGASIRATGLPARFSGSGSGTEFTLTISSLQSEDFAVYYCQQYNYWWTFGQGTKVEIKR
notes: Parent antibody
- Kd [2]: 0.0288 nM
- koff [2]: 5.15e-05 s⁻¹
- kon [2]: 1.79e+06 M⁻¹ s⁻¹
- TNFα Neutralization Assay EC50 (L929 cells) [1]: 0.045 nM

B8: DVD1507 (bispecific antibody, human IgG1, kappa)
heavy: not shown
light: DIVMTQSHKFMSTTVGDRVSITCKASQAVSSAVAWYQQKPGQSPKLLIYWASTRHTGVPDRFTGSGSVTDFTLTIHNLQAEDLALYYCQQHYSTPFTFGSGTKLEIKRTVAAPDVVMTQTPLSLPVSLGDQASISCTSGQSLVHINGNTYLHWYLQKPGQSPKLLIYKVSNLFSGVPDRFSGSGSGTDFTLKISRVEAEDLGVYFCSQSTHFPFTFGTGTKLEIKRTVAAPSVFIFPPSDEQLKSGTASVVCLLNNFYPREAKVQWKVDNALQSGNSQESVTEQDSKDSTYSLSSTLTLSKADYEKHKVYACEVTHQGLSSPVTKSFNRGEC
- TNFα Neutralization Assay EC50 (L929 cells) [1]: 0.133 nM

Results, then the binder that gave them:

- TNFα Neutralization Assay EC50 (L929 cells) [1]: 0.273 nM
B3: DVD1474 (bispecific antibody, human IgG1, kappa)
heavy: not shown
light: DVLMTQTPLSLPVTPGEPASISCTSSQNIVHSNGNTYLEWYLQKPGQSPQLLIYKVSNRFSGVPDRFSGSGSGTDFTLKISRVEAEDVGVYYCFQVSHVPYTFGGGTKVEIKRTVAAPSVFIFPPDIQMTQSPSSLSASVGDRVTITCRASQGIRIDLGWYQQKPGKAPKRLIYAASTLQSGVPSRFSGSGSGTEFIFTISSLQPEDFASYYCLQHKSYPLTFGGGTKVEIKRTVAAPSVFIFPPSDEQLKSGTASVVCLLNNFYPREAKVQWKVDNALQSGNSQESVTEQDSKDSTYSLSSTLTLSKADYEKHKVYACEVTHQGLSSPVTKSFNRGEC

- Kd (Recombinant Human SOST): 0.0408 nM
- koff (Recombinant Human SOST): 0.000396 s⁻¹
- kon (Recombinant Human SOST): 9.68e+06 M⁻¹ s⁻¹
B7: AB022 (antibody, V domains shown)
VH: EVQLQQSGPELVTPGASVKISCKASGYTFTDHYMSWVKQSHGKSLEWIGDINPYSGETTYNQKFKGTATLTVDKSSSIAYMEIRGLTSEDSAVYYCARDDYDASPFAYWGQGTLVTVSA
VL: DVQMIQSPSSLSASLGDIVTMTCQASQGTSINLNWFQQKPGKAPKLLIYGSSNLEDGVPSRFSGSRYGTDFTLTISSLEDEDLATYFCLQHSYLPYTFGGGTKLEIKR
notes: Parent antibody; also called SOST parent antibody

- TNFα Neutralization Assay EC50 (L929 cells) [1]: 0.139 nM
B9: DVD1476 (bispecific antibody, human IgG1, kappa)
heavy: not shown
light: DVQMIQSPSSLSASLGDIVTMTCQASQGTSINLNWFQQKPGKAPKLLIYGSSNLEDGVPSRFSGSRYGTDFTLTISSLEDEDLATYFCLQHSYLPYTFGGGTKLEIKRTVAAPSVFIFPPDIQMTQSPSSLSASVGDRVTITCRASQGIRIDLGWYQQKPGKAPKRLIYAASTLQSGVPSRFSGSGSGTEFIFTISSLQPEDFASYYCLQHKSYPLTFGGGTKVEIKRTVAAPSVFIFPPSDEQLKSGTASVVCLLNNFYPREAKVQWKVDNALQSGNSQESVTEQDSKDSTYSLSSTLTLSKADYEKHKVYACEVTHQGLSSPVTKSFNRGEC

- Kd [2]: 0.0272 nM
- koff [2]: 5.04e-05 s⁻¹
- kon [2]: 1.85e+06 M⁻¹ s⁻¹
- TNFα Neutralization Assay EC50 (L929 cells) [1]: 0.0762 nM
B10: AB217 (antibody, V domains shown)
VH: QVQLVESGGGVVQPGRSLRLSCAASGFTFSSYDMHWVRQAPGKGLEWVAVIWSDGSIKYYADSVKGRFTISRDNSKNTLYLQMNSLRAEDTAVYYCAREVESAMGGFYYNGMDVWGQGTTVTVSS
VL: DIQMTQSPSSLSASVGDRVTITCRASQGIRIDLGWYQQKPGKAPKRLIYAASTLQSGVPSRFSGSGSGTEFIFTISSLQPEDFASYYCLQHKSYPLTFGGGTKVEIKR
notes: Parent antibody

- TNFα Neutralization Assay EC50 (L929 cells) [1]: 1.39 nM
B11: DVD1448 (bispecific antibody, human IgG1, kappa)
heavy: not shown
light: DVLMTQTPLSLPVTPGEPASISCTSSQNIVHSNGNTYLEWYLQKPGQSPQLLIYKVSNRFSGVPDRFSGSGSGTDFTLKISRVEAEDVGVYYCFQVSHVPYTFGGGTKVEIKRTVAAPSVFIFPPDIVMTQSHKFMSTTVGDRVSITCKASQAVSSAVAWYQQKPGQSPKLLIYWASTRHTGVPDRFTGSGSVTDFTLTIHNLQAEDLALYYCQQHYSTPFTFGSGTKLEIKRTVAAPSVFIFPPSDEQLKSGTASVVCLLNNFYPREAKVQWKVDNALQSGNSQESVTEQDSKDSTYSLSSTLTLSKADYEKHKVYACEVTHQGLSSPVTKSFNRGEC

- TNFα Neutralization Assay EC50 (L929 cells) [1]: 0.89 nM
B12: DVD1518 (bispecific antibody, human IgG1, kappa)
heavy: not shown
light: DVQMIQSPSSLSASLGDIVTMTCQASQGTSINLNWFQQKPGKAPKLLIYGSSNLEDGVPSRFSGSRYGTDFTLTISSLEDEDLATYFCLQHSYLPYTFGGGTKLEIKRTVAAPDIQMTQSPSSLSASVGDRVTITCRASQGIRIDLGWYQQKPGKAPKRLIYAASTLQSGVPSRFSGSGSGTEFIFTISSLQPEDFASYYCLQHKSYPLTFGGGTKVEIKRTVAAPSVFIFPPSDEQLKSGTASVVCLLNNFYPREAKVQWKVDNALQSGNSQESVTEQDSKDSTYSLSSTLTLSKADYEKHKVYACEVTHQGLSSPVTKSFNRGEC

From patent publication US20120087858A1 (AbbVie / Abbott, published 2012)
